Source: the nanobody polyreactivity screen of Harvey et al. (2022)

experiment: yeast display, Sf9 membrane polyspecificity reagent, FACS + sequencing; frameworks hold sequencing errors
Summary of the method: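 Galactose-induced (36–48 hours) yeast carrying a synthetic nanobody display library were exposed to 10% biotinylated, detergent-solubilized Sf9 membrane reagent at 4 °C for 1 hour. FACS followed streptavidin microbead enrichment, using low and high (top ~1%) gates for expression (anti-HA) and reagent binding (streptavidin). Colony PCR, MiSeq 2 × 250 sequencing and CDR-length filtering followed. Labels for polyreactivity reflect the gate of origin.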

Row | Sequence | polyreactivity (PSR sort gate)
1 | QEQLVQSAGGLVQAGGSLPLSCAASGSIIISNAMGWYRQAPGKERELVAAISRSGARTYYADSVKGRFTISRDNAKNTVYLQMNSLKPEDTAVYSCAVDGYSPYKYDYWGQGTLVTVSS | high polyreactivity
2 | QVQLVESGGGLVQAGGSLRLSCAASGSTFDYYAMGWYRQAPGKERELVAAITSTGSTYYADSVKGRFTISRDNAKNTVYLQMNSLKPEDTAVYYCAADDIYKYYQYYAFPYYRYDYWGQGTQVTVSS | low polyreactivity
3 | QVQLVESGGGLVQAGGSLRLSCAASGFYFYSYAMGGYRQAPGKERELVAVISGSGGSTYYADSVKGRFTISRDNAKNTVYLQMNSLKPEDTAVYYCAARNQGNIYGYWGQGTQVTVSS | high polyreactivity
4 | QVQLVESGVGLVQAGGSLRLSCAASGSIFLTYDMGWYRPAPGKERELVAAITGSGDSTYYADSVKGRFTISRDNAKNTVYLQMNSLKPEDTAVYYCNTLVGVDFWLVDYWGQGTQVTLSS | low polyreactivity
5 | QVQLVESGGGLVQAGGSLRLSCAASGSIFQYVYAMGWYRQAPGKERELVATITWSGGTTYYADSVKGRFTISRDNAKNTVYLQMHSLKPEDTADYYCAAESIYYPVAQYYYSFEYWGQGTQVTVSS | low polyreactivity
6 | QDQLVESGGGLVQAGGSLRLICAASGSNFGYYGMGWYRQAPGKEREFVAAITFSGGSTYYADSVKGRFTISRDNAKNTVYLQMNSLKPEDTAVYYFAAVYYGPYTYRHKMYYWGQGTQVTVSS | low polyreactivity
7 | QVQLQESGGGLVQVGGSLRLSCPSSGTIFIYGFLGWNRQAPGKERELVASINLGGITNYADSVKGRCTISRDNAKNTVNLQMISLKPEDTAVYYCATYVVTGQNYGYWGQGTQVTVSR | low polyreactivity
8 | QVQLVESGGGLVQAGGSLRLSCDASGSIFEYYAMGWYRPAPGKERELVAAISSGGPTYYADSVKGRFTISRDNAKNTVYLQMNSLKPEDTAVYYCNADLWYPDYDYWGQGTQVTVSS | low polyreactivity
9 | QVQLVESGGGLVQAGGSLRLSCAASGSIFDVYTMGWYRQAPGKERELVAAINTGGGSTYYADSVKGRFTISRDNAKNTVYLQMNSLKPEETAVYYCAASVYHYGPLYYWGQGTQVTVSS | low polyreactivity
10 | EVQLVESGGGVDQAVGSLRLSCAASGSIFLFYARGWYRQARGKEMELVARISFRSTSTYYADSVKGRFTISLDNAKYTVSLQMNSLKPEDTAVYYCATRTWYGYLYDYWGQGTQVTVSS | high polyreactivity
11 | QVQLVESGGGLVQAGGSLRLSCAASGRTFNSNAMGWYRQAPGKERELVAAITRSGGSTYYADSVKGRFTISRDNAKNTVYLQMNSLKPEDTAVYYCNKTRWTQRTSFDYWGQGTQVTVSS | low polyreactivity
12 | QVQLVESGGGLVQAGGSLRLSCAASGRTFTWYAMGWYRQAPGKEREFVAAISFSGGSTYYADSVKGRFTISRDYAKNTVFLQMNSLKPEDTAVYYCARPSGDAWEGPRMDYWGQGTQVTVSS | low polyreactivity
13 | QVQLVESGGGLVQAGGSLRLSCAASGSIFYQYAMGWYRQAPGKERELVAAISRSGGSTYYADSVKGRFTISRDNAKNTVYLQMISLKPEDTAVYYCAARAVRAAYDYWGLGTQVTVSS | low polyreactivity
14 | QDQLVESGGGLVQAGGSLRLSCAASGLTFQSYAMGWYRQAPGKERELVATISNGSSTYYADSVKGRFTISRDNAKNTVYLQMNSLKPEDTAVYYFAKDYYYSRNPLYGLDYWGQGTQVTVSS | low polyreactivity
15 | QVHLVESGGGLVQAGGSLRLSCAASGRTFGTYAMGWYRQAPGKERELVAAISSGGSTNYADSVKGRFTISRGNAKNTVYLQMNSLKPEDTAVYYCAAQGYWTYWPYLLRLYDYWGQGTQVTVSS | low polyreactivity
16 | QVQLVESGGGLVQAGGSLRLSCAASGNIFDGNAMGWYRQAPGKERELVAAITSSGDSTYYADSVKGRFTISRDNAKNTVYLLMNSLKPEDTAVYYCAAGYRWGYYYWGQGTQVTVSS | high polyreactivity
17 | QVQLVESGGGLVQAGGSLRLSCAASGRIYRENAMGWYRQAPGKEREFVAVISISDASTYYADSVKGRFTISRDNAKNTVYLQMNSLKPVDTAVYYCAADLTDFLYVSSDFWGQGTQVTVSS | low polyreactivity
18 | QVQLVESGGGLVQAGGSLRLTCAASGRIFGLYAMGWSRQAPGKERELVAAISVISTGTYYADSVKGRFTISRDNAKNTVYLQMNSLKPEDTAVYYCNADSGQYTPPESDYWGQGTQVTVSS | low polyreactivity
19 | QVQLVESWGGLFQAGGSLRLRCAASGRKFYYYAMVFYIQAPGKERELVAAITGRGGRTYYADSVKGRFTISRDNAKNTVYLQINSLKPDDTAVYYCAVRAGSAGYPKYDYWGQGTQVTLSS | high polyreactivity
20 | QVQLVESGGGLLQAGGSLRLSCAASGSIFYGYAMGWYRQAPGKERELVAAITRGGGTYYADSVKGRFTNSRDNAKITVYLQMNSLKPEDTAVYYCALSFYRRYTPYDYWGQGTQLTVSS | high polyreactivity
21 | QVQLVESGGGLVQAGGSLRLSCAASGRIFDYNAMGWYRQAPGKERELVAAINSGGSTYADSVKGRFTISRDNAKNTVYLQMNSLNPEDTAVYYCAKSLGQTDWEYDSWGQGTQVTVSS | low polyreactivity
22 | QVQLVESGGGLVQAGGSLRLSCAASVRSFRWYTMGWYRQAPGKERELVATISWRGGSTSYADSVKGRFTISRDNAKNTVYLQMNSLKPEDNAVYYCNAVYLWWAYDYWGQGTQVTVSS | high polyreactivity

Row | Sequence | polyreactivity (PSR sort gate)
23 | QVQLVESGGGLVQAGGSLRLSCAASGGIFKYNAMGWYRTAPGKERELVAAIRSSGSTNYADSVKGRFTISRDNAKNTVYLQMNSLKPEETAVYYCNVAYGLQPYDYWGQGTQVNVSS | high polyreactivity
24 | QVQLVESGGGLVQAGGSLRLSCAASGSIFLVNAMGWYRQAPGKERELVAIDGSGGSTYADSVKGRFTISRDNAMNTVYLQMNILKPEDTAVYYCAKDQEGPLYDYWGQGTQVTVSS | low polyreactivity
25 | QVQIVESGAGIVQAGGSLRLSCAASGFIFDIYAMGWYRQAPGKERELVASITWDDGSTYYADSVKGRFTISRDNAKNTVYLQINSLKPEDTAVYYCAADFEAGGYSLDYWGQGTQVTVSS | low polyreactivity
26 | QVQLVESGGGLVQAGGSLRLSCAASGGIFFPNAMGWYRQAPGKERELVAAISWSAGSTYYADSVKGRFTISRDHAKNTVDLQMNSLKPEDTAVYYCPAAGSNYTVWYGYYYWGQGTQVTVSS | low polyreactivity
27 | QVQLVESGGGLVQAGGSLRLSCAASGRIFPFYDMGWYRQAPGKERELVAAISTSGGSTYYADSVKGRFTISRDNAKNTVYLQMNSLKPEDTAVYYCNAQRALRSTYDSWGQGTQVTVSS | low polyreactivity
28 | QVHLVESGAGLVQAGGSLRLSCASSGFTFKAYAMGWYRQAPGKERELVAAITKSGGRTFYADSVKGRFTISRDNAKNTVYLQMNSLKPEDTAVYYCAASYTVYYWGQGTKVTVSS | high polyreactivity
29 | QVQLVESGGGLVQAGGSLRLSCAASGITFFYYAMGWYRQAPGKERELVAAINWSGRTYYADSVKGRFTISRDNAKNTVYLQMNSLKPEDTAVSYCAAVTYGPGVSGMDYWGQGTQVTVSS | low polyreactivity
30 | QVQLVESGGGLVQAGGSLRLSCAASGFTFYRYAMGWYRQAPGKERELVAAITSRGTSTYYADSVKGRFTISRDNAKNTVYLQMNSLKPEDTAVYYCAVKGYRYGTRYDYWGQGTQVTVSS | high polyreactivity
31 | QVQLVESGGGLVQAGGSLRLSCAASGRIFKVNAMGWYRQAPGKERELVAAITRGGRTYADSVKGRFTISRDNAKNTVYLQMNSLKPEDTAVYYCAADVLEGWFKRYYYWGQGTQVTVSS | high polyreactivity
32 | QVQLVESGGGLVQAGGSLRLSCAASGIIFPYNAMGWYRQAPGKERELVAAITGGGSTYYADSVKGRFTISRDNAKNTVYLQMNSLKPEDTAVYYCAADRSGPGYDYWGQGTQVTVSS | low polyreactivity
33 | QVQLVESGGGLVQAGGSLRLSCAASGSTFGYNAMGWYRPAPGKERELVAAISWNGGSTYYADSVKGRFTISRDNAKTTVYLQMNSLKPEDTAVYYCAAEHRGYFTRYDYWGQGTQVTVSS | low polyreactivity
34 | QVQLVESGGGLVQAGGSLRLSCAASGSIFSGWYTMGWYRQAPWKERELVASISISTTDTYYADSVKGRFTISRDNAKNTVYVQMNSLKPEDTAVYYCAASGWDHVIVEYDYWGQGTQVTVSS | low polyreactivity
35 | QVQLVESGGGLVQAGGSLRLSCAASGSTSDTNVMGWYRQPPAKERELVAAISNDDDRTYYADSVKGRFTSSRDNAKNTVYLQMNSVKPEDTAVYYCATADDYPGDDYLEGGYWGQGTQVTVSS | low polyreactivity
36 | QVKLVESGGGLVQAGGSLRLSCADSGLIFGRNARGWYRQAPGKERELVAAISSSGVRTFYADSVKGRFTISRDNAKNTVYLQMNSLKPEDTAVYYCATRGRVYPTKYSLDEDYWGQGTQVTVSS | high polyreactivity
37 | QVQLVETGGGLVQAGGSLRLSCAASGITIRPYTMGWYRQAPGKERELVARISRRGGSTYYADSVKGRFTISRDNAKNTVYLQMNSLKPEDTAVYYCATRSRAHISPYDYWGQGTQVTVSS | high polyreactivity
38 | QVQLVESGGGLVQAGGSLRLICAASGFIFRVYAMGWYRQAPGKERALVATITYDGGRTYYADSVKGRFTISRDNAKNTVYLQMNSLKPEDTAVFGYWGQGTQVTVSS | low polyreactivity
39 | QVQLVESGGGLVQAGGSLRLSCAASGGTFGRYAMGWYRQAPGKERELVAAITWRVGSTYADSVKGRFTISRDNAKNTVYLQMNSLKPEDTAVYYCAARRRAPGTKYYYWGQGTQVTVSS | low polyreactivity
40 | QVQLVESGGGLVQAGGSLRLSCAASGRIFRYYAMGWYRQAPGKERELVAAISSSGGSTYYADSVKGRFTISRDNAKNTVDLQMNSLKPEDTAVYYCAAKYSRRSSVSYYYWGQGTQVTVSS | high polyreactivity
41 | QVQLVESGGGLVQAGGSLRLSCAASGSTFYYAMGWYRQAPGKEMELVASITFSTGSTYYADSVKGRFTISRDNAKNTVYLQMNSLKPEDTAVYYCATGVDTYSLTVEHDSWGQGTQVTVSS | low polyreactivity
42 | QVQLVESGGGLVQAGGSLRLSCAASGRTFWDYGMGWYRQAPGKERELVPTISGNGGDTYYADSVKGRFTISRDNAKNTVYLQMNSLKPEDTAVYFCAADYRFYRTDRHYDYWGQGTQVTVSS | low polyreactivity
43 | QVQLVESGGGLVQAGGSLRVSCAASGSIFIGYAMGWSRQAPGKERELVAAINDSGDRTYYADSVKGRFTISRDNAKNTVYLQMNSLKPEDTAVYYCAADLVSLDPEYDYWGQGTQVTVSS | low polyreactivity
